Data taken from PMC3206016, “Putting into Practice Domain-Linear Motif Interaction Predictions for Exploration of Protein Networks” (PLoS ONE, 2011).
Where “and” joins values, the source holds several entries; their conditions need not be identical. Equal values may be shown once. Ends that are not written are not given here. * marks the point of attachment. Biotin = O=C1N[C@H]2[C@H](CS[C@H]2CCCCC(=O)*)N1

How the values were obtained:
Assay in all cases: SPR
Conditions in all cases: both partners purified
[1] = target: T1, MAGI1-2/6 (MBP fusion of the second of the six PDZ domains of MAGI1) (mouse, UniProt Q6RHR9-1 448-572)
T1 construct: source: E. coli BL21 DE3, purified (amylose column, Superdex 75 gel filtration)
T1 sequence (Q6RHR9 448-572): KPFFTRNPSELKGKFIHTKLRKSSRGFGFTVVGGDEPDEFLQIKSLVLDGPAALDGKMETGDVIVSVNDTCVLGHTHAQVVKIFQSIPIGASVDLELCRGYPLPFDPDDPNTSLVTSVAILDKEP

[2] = target: T2, SCRIB-3/4 (MBP fusion of the third of the four PDZ domains of SCRIB) (human, UniProt Q14160-1 997-1093)
T2 construct: also called MBP-PDZ analyte SCRIB-3/4; source: E. coli BL21 DE3, purified (amylose column, Superdex 75 gel filtration)
T2 sequence (looked up): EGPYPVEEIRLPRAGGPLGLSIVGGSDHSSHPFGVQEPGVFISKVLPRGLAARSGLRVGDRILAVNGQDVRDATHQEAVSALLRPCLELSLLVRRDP

[3] = target: T3, SCRIB-34/4 (MBP fusion of the tandem of the third and fourth PDZ domains of SCRIB) (human, UniProt Q14160-1 997-1193)
T3 construct: also called MBP-PDZ analyte SCRIB-34/4; tandem PDZ construct; source: E. coli BL21 DE3, purified (amylose column, Superdex 75 gel filtration)
T3 sequence (looked up): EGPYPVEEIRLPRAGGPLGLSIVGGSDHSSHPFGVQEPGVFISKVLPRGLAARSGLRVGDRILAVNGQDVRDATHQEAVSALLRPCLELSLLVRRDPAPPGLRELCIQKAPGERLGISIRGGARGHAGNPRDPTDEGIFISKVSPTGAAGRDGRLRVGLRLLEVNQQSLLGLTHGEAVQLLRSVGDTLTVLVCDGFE

[4] = target: T2, SCRIB-3/4 (MBP fusion of the third of …); remark: listed apart in the source
[5] = target: T3, SCRIB-34/4 (MBP fusion of the tandem of …); remark: listed apart in the source
[6] = target: T2, SCRIB-3/4 (MBP fusion of the third of …); remark: listed apart in the source
[7] = target: T4, MAGI1-3/6 (MBP fusion of the third of the six PDZ domains of MAGI1) (mouse, UniProt Q6RHR9-1 613-752)
T4 construct: source: E. coli BL21 DE3, purified (amylose column, Superdex 75 gel filtration)
T4 sequence (Q6RHR9 613-752): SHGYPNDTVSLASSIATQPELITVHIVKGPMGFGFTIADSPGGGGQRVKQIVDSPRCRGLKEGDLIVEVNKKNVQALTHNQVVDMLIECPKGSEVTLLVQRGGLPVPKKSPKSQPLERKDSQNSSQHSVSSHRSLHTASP

[8] = target: T3, SCRIB-34/4 (MBP fusion of the tandem of …); remark: listed apart in the source
[9] = target: T4, MAGI1-3/6 (MBP fusion of the third of …); remark: listed apart in the source
[10] = target: T5, SCRIB-4/4 (MBP fusion of the fourth of the four PDZ domains of SCRIB) (human, UniProt Q14160-1 1097-1193)
T5 construct: also called MBP-PDZ analyte SCRIB-4/4; source: E. coli BL21 DE3, purified (amylose column, Superdex 75 gel filtration)
T5 sequence (looked up): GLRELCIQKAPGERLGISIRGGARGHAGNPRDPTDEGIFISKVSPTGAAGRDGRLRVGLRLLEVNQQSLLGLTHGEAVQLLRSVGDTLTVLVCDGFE

B1: 16E6 (long peptide of HPV16 early protein E6: the last ten residues) (peptide)
peptide: Biotin-SSRTRRETQL
notes: source: synthetic peptide (JPT Peptide Technologies)
Kd [1]: 3 µM and 9 µM
Kd [2]: 18 µM
Kd [3]: 3 µM
Kd [4]: 15 µM
Kd [5]: 3 µM

B2: TTC24_10 (long peptide of Tetratricopeptide repeat protein 24: the last ten residues) (peptide)
peptide: Biotin-PMESGICTIV
notes: also called TTC24 long; source: synthetic peptide (JPT Peptide Technologies)
Kd [6]: 117 µM
Kd [7]: 37 µM
Kd [8]: 49 µM

B3: TAX1_10 (long peptide of the Trans-activating transcriptional regulatory protein of HTLV-1: the last ten residues) (peptide)
peptide: Biotin-SEKHFRETEV
notes: also called TAX1 long; HTLV1 Tax1; source: synthetic peptide (JPT Peptide Technologies)
Kd [1]: 53 µM
Kd [2]: 29 µM
Kd [9]: 1230 µM
Kd [10]: 48 µM

B4: TANC1_10 (long peptide of Tetratricopeptide repeat, ankyrin repeat and coiled-coil domain-containing protein 1: the last ten residues) (peptide)
peptide: Biotin-PKRSFIESNV
notes: also called TANC1 long; source: synthetic peptide (JPT Peptide Technologies)
Kd [1]: 287 µM
Kd [2]: 39 µM
Kd [3]: 2 µM
